According to patent US20080108569A1, “Compositions and Methods for Treating Diseases Associated With Phlpp” (The Regents of the University of California, priority 2005, published 2008):
Values belong to the molecule of their own block, whether it stands above or below them.

Columns and labels:
[1] = molecular target: T1, Akt (Homo sapiens, UniProt P31749); experiment: phosphatase assay with purified GST-tagged PHLPP2 PP2C domain and pure phosphorylated Akt; assay type: biochemical; details: in 5 minutes, pure
T1 construct: 6His; made in house; host or cells: Akt1: baculovirus-infected Sf21 cells; HA-PHLPP2: transfected 293T cells, immunoprecipitated with HA antibody
T1 sequence (P31749 whole entry, the tested form may be a part): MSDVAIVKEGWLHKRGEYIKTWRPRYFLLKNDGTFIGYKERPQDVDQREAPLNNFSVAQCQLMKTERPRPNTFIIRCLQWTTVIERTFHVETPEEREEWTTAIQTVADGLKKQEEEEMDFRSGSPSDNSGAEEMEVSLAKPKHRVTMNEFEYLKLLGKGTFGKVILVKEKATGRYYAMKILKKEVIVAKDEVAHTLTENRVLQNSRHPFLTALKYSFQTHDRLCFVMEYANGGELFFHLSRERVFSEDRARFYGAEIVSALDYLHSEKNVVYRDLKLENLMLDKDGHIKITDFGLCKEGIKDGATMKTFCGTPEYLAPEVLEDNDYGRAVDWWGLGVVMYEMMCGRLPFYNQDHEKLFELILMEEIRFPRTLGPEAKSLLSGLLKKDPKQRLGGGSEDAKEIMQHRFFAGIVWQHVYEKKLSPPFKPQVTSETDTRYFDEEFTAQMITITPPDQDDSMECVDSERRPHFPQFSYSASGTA
Description: A GST-fusion protein of PHLPP-1α-PP2C was expressed in BL21 (DE3) and purified using glutathione-Sepharose. The GST-PP2C proteins were eluted from the beads in PBS containing 10 mM glutathione and 1 mM DTT, and dialyzed against 50 mM Tris (pH 7.4) and 1 mM DTT. His-tagged Akt was expressed and purified from baculovirus-infected Sf21 cells. Briefly, Sf21 cells were maintained in SF-900 II media (Invitrogen) and infected with baculovirus encoding His-Akt for 3 days. To obtain maximally phosphorylated Akt as substrate, the infected cells were treated with 10% FBS and calyculin A (100 nM) for 15 minutes prior to lysis. The infected cells were lysed in PBS containing 1% Triton X-100 and 10 mM imidazole, and His-Akt proteins were purified using Ni-NTA beads (Qiagen). The dephosphorylation reactions were carried out in a reaction buffer containing 50 mM Tris (pH 7.4), 1 mM DTT and 5 mM MnCl2 at 30° C. for 0-30 minutes. […]
GST-PP2C was expressed in BL21 bacterial cells; phosphatase assays were performed using the purified GST-PP2C construct conjugated to glutathione-sepharose and pure Akt as a substrate as described above. The activity of full length HA-PHLPP2 was assessed by expressing and immunoprecipitating PHLPP2 from 293T or H157 cell lysates. […]

[2] = test system: LN229 cells; experiment: growth rate of glioblastoma cells transfected with PHLPP (viable cells in G418 media); assay type: cell-based, human; details: glioblastoma cell line wild-type in PTEN
Description: (§1) LN229 cells were transfected with vector, HA-PHLPP or HA-ΔC. Approximately 30 hours post-transfection, the cells were switched to selection media (DMEM, 10% FBS, 1% penicillin/streptomycin and 800 μg/ml G418). The viable cells were counted after 7 days in selection media. The number of viable cells reflects the effect of PHLPP on cell proliferation. The G418 resistant stable cells were propagated and expanded for an additional 2-3 passages to obtain the number of cells needed for mice injection. For subcutaneous inoculation, 3×10^6 or 5×10^6 cells were injected into 4- to 5-week old female nude mice of BALB/c background. The size of tumors was measured once a week with a caliper, and tumor volumes were defined as (longest diameter)×(shortest diameter)^2×0.5. Tumors were excised from individual mice and flash frozen in liquid N2. The tumor samples were homogenized in buffer A, and detergent-solubilized lysates were subjected to SDS-PAGE and Western blotting analysis.

[3] = test system: LN229 cells; experiment: tumorigenicity of subcutaneously injected glioblastoma cells transfected with PHLPP; assay type: in vivo, nude mice of BALB/c background; details: subcutaneous injection
Description: as §1

dephosphorylation of Ser 473 (P473) [1]: 82+6%
dephosphorylation of Thr 308 (P308) [1]: 70+2%
B1: PHLPP2 PP2C domain: GST-tagged PP2C domain of PHLPP2 (residues 780-1030) expressed in bacteria (protein)
chain: TSTFWSHGLAEMAGQRNKLCVSALAMDSFAEGVGAVYGMFDGDRNEELPRLLQCTMADVLLEEVQQSTNDTVFMANTFLVSHRKLGMAGQKLGSSALLCYIRPDTADPASSFSLTVANVGTCQAVLCRGGKPVPLSKVFSLEQDPEEAQRVKDQKAIITEDNKVNGVTCCTRMLGCTYLYPWILPKPHISSTPLTIQDELLILGNKALWEHLSYTEAVNAVRHVQDPLAAAKKLCTLAQSYGCQDNVGAMV
modifications: left off: a dimerising Fc or GST
notes: GST-tagged PP2C domain of PHLPP2 (residues 780-1030) expressed in bacteria

B2: PHLPP: PH domain Leucine rich repeat Protein Phosphatase; HA-PHLPP-1α construct transfected into LN229 glioblastoma cells (SEQ ID NO: 2) (protein, listed as Homo sapiens)
chain: MDSEIGCLIRFYAGKPHSTGSSERIQLSGMYNVRKGKMQLPVNRWTRRQVILCGTCLIVSSVKDSLTGKMHVLPLIGGKVEEVKKHQHCLAFSSSGPQSQTYYICFDTFTEYLRWLRQVSKVASQRISSVDLSCCSLEHLPANLFYSQDLTHLNLKQNFLRQNPSLPAARGLNELQRFTKLKSLNLSNNHLGDFPLAVCSIPTLAELNVSCNALRSVPAAVGVMHNLQTFLLDGNFLQSLPAELENMKQLSYLGLSFNEFTDIPEVLEKLTAVDKLCMSGNCVETLRLQALRKMPHIKHVDLRLNVIRKLIADEVDFLQHVTQLDLRDNKLGDLDAMIFNNIEVLHCERNQLVTLDICGYFLKALYASSNELVQLDVYPVPNYLSYMDVSRNRLENVPEWVCESRKLEVLDIGHNQICELPARLFCNSSLRKLLAGHNQLARLPERLERTSVEVLDVQHNQLLELPPNLLMKADSLRFLNASANKLESLPPATLSEETNSILQELYLTNNSLTDKCVPLLTGHPHLKILHMAYNRLQSFPASKMAKLEELEEIDLSGNKLKAIPTTIMNCRRMHTVIAHSNCIEVFPEVMQLPEIKCVDLSCNELSEVTLPENLPPKLQELDLTGNPRLVLDHKTLELLNNIRCFKIDQPSTGDASGAPAVWSHGYTEASGVKNKLCVAALSVNNFCDNREALYGVFDGDRNVEVPYLLQCTMSDILAEELQKTKNEEEYMVNTFIVMQRKLGTAGQKLGGAAVLCHIKHDPVDPGGSFTLTSANVGKCQTVLCRNGKPLPLSRSYIMSCEEELKRIKQHKAIITEDGKVNGVTESTRILGYTFLHPSVVPRPHVQSVLLTPQDEFFILGSKGLWDSLSVEEAVEAVRNVPDALAAAKKLCTLAQSYGCHDSISAVVVQLSVTEDSFCCCELSAGGAVPPPSPGIFPPSVNMVIKDRPSDGLGVPSSSSGMASEISSELSTSEMSSEVGSTASDEPPPGALSENSPAYPSEQRCMLHPICLSNSFQRQLSSATFSSAFSDNGLDSDDEEPIEGVFTNGSRVEVEVDIHCSRAKEKEKQQHLLQVPAEASDEGIVISANEDEPGLPRKADFSAVGTIGRRRANGSVAPQERSHNVIEVATDAPLRKPGGYFAAPAQPDPDDQFIIPPELEEEVKEIMKHHQEQQQQQQPPPPPQLQPQLPRHTQLDQLPDYYDTPL
modifications: HA tag
decrease of the growth rate [2]: approximately 50%
ability of the cells to induce tumors [3]: dramatically reduces
